Experiment: Phase 1b dose escalation study of XMT-1536: safety and tolerability (adverse events, DLT)
Type: in vivo, human
Text: The study presented herein is an open label, multi-center Phase 1b study of XMT-1536 administered as an intravenous infusion once every three or four weeks. The dose escalation (DES) part of the study will establish the maximum tolerated dose (MTD) or recommended Phase 2 dose (RP2D) for XMT-1536 in patients with a number of tumor types likely to express NaPi2b, with a focus on patients with platinum-resistant ovarian cancer and non-squamous non-small cell lung cancer (NSCLC). […] The RP2D may differ from the MTD and may take into account tolerability, pharmacokinetic and pharmacodynamic measures, and efficacy of XMT-1536 based on RECIST 1.1. After the first cycle, patients may continue to receive XMT-1536 until disease progression provided the drug is well-tolerated and patients continue to derive clinical benefit in the opinion of the Investigator. The DES segment of the study utilized an accelerated titration design. The first 3-week cycle of treatment constitutes the dose limiting toxicity (DLT) evaluation period. For the first two dose levels, a minimum of 1 patient was treated at each dose level. If this patient experiences a treatment-emergent adverse event of Grade 2 or higher, 2 additional patients will be added at this dose level, and the study will subsequently follow a 3+3 design, as described below. […] Starting with Dose Level 3, the study will follow a standard 3+3 design, with 3 patients enrolled initially at each dose level. […] However, in the event of 1 DLT, 3 additional patients will be enrolled at the same dose level. Any dose level with 2 or more DLTs will be considered to exceed the MTD and subsequent patients will be enrolled at lower dose level(s). After the first cycle, patients may continue to receive XMT-1536 until disease progression if the drug is well-tolerated and patients continue to derive clinical benefit in the opinion of the Investigator.
After an August 2018 protocol amendment, each cycle will be 4-week (28 day) dose cycle. The first two, 4-week cycles of treatment (56 days) constitutes the dose limiting toxicity (DLT) evaluation period. Beginning with this amendment, up to 10 patients will be enrolled for evaluation at 20.0 mg/m^2 under the new 4-week cycle dose regimen. If that dose is cleared by the SRC, subsequent dose groups will follow a modified 3+3 design. Three patients will be enrolled initially and if toxicity issues arise, the SRC will review all pertinent data and may decide to add more patients to fully evaluate a dose in question and/or lower the dose. […] The observation period for DLTs is 56 days, between Day 1 through the end of Cycle 2 which includes the pre-dose assessments before receiving the Cycle 3 dose. A maximum of ten patients will be enrolled per dose level prior to the SRM. that will be conducted no later than 5 days after at least the sixth patient dosed in each level has completed Cycle 2, Day 28 evaluations. The data available for the patients dosed in all prior will be factored into the data review for each applicable dose escalation SRM. Any dose level with 2 or more DLTs occurring in 6 or fewer treated patients will be considered to exceed the MTD and subsequent patients will be enrolled at lower dose level(s). After the second cycle, patients may continue to receive XMT-1536 until disease progression if the drug is well-tolerated and patients continue to derive clinical benefit in the opinion of the Investigator. After completion of DES, the EXP segment of the study will be opened.
All adverse events will be graded according to the National Cancer Institute (NCI) Common Terminology Criteria version (CTCAE v4.03). The observation period for DLTs is 56 days, between Day 1 through end of Cycle 2 which includes the pre-dose assessments before receiving the Cycle 3 dose. […]

B1: XMT-1536: about 10-15 molecules of auristatin F-hydroxypropyl amide conjugated to a cysteine moiety of NaPi2b monoclonal antibody XMT-1535 via a PHF scaffold (conjugate, chains of the INN, looked up)
VH: QVQLVQSGAEVVKPGASVKMSCKASGYTFTGYNIHWVKQAPGQGLEWIGAIYPGNGDTSYKQKFRGRATLTADTSTSTVYMELSSLRSEDSAVYYCARGETARATFAYWGQGTLVTVSS
VL: DIQMTQSPSSLSASVGDRVTITCSASQDIGNFLNWYQQKPGKTVKVLIYYTSSLYSGVPSRFSGSGSGTDYTLTISSLQPEDFATYYCQQYSKLPLTFGQGTKLELK
modifications: auristatin F-hydroxypropyl amide via PHF scaffold
notes: about 10-15 molecules of auristatin F-hydroxypropyl amide conjugated to a cysteine moiety of NaPi2b monoclonal antibody XMT-1535 via a PHF scaffold
30 mg/m^2, 28-day cycle, as of August 2019
  number of DLT: One
30 mg/m^2, 28-day cycle, as of February 2019
  number of DLT: one
36 mg/m^2, 28-day cycle, as of August 2019
  number of DLT: one
40 mg/m^2, 21-day cycle, as of February 2019
  number of DLT: One
DL4 (20 mg/m^2)
  possible treatment related SAE: Grade 3 cardiac failure congestion
DL 4, 21-day cycle, as of February 2019
  SAE related to study drug: congestive heart failure
DL5 (30 mg/m^2)
  possible treatment related SAE: Grade 2 pyrexia
DL 5, 30 mg/m^2, 21-day cycle, as of February 2019
  SAE related to study drug: pyrexia
DL 5A
  ALT or bilirubin elevation: no elevation of ALT or bilirubin
  time for AST elevation to return to Grade 1: ≤ 13 days
  time for AST elevation to return to Grade 2: ≤ 7 days
DL 5A, alkaline phosphatase
  finding accompanying AST elevation: Grade 1 alkaline phosphatase elevation
DL 5A, cycle 1, day 8
  dose limiting toxicity: Grade 3 AST
DL6
  bilirubin elevation: no elevation of bilirubin
  time for ALT elevation to resolve to Grade 1: ≤ 8 days
  time for AST elevation to return to Grade 1: ≤ 21 days
DL6, ALT
  finding accompanying AST elevation: Grade 2 ALT elevation
DL6, alkaline phosphatase
  finding accompanying AST elevation: Grade 1 alkaline phosphatase elevation
DL6, cycle 1, day 8
  dose limiting toxicity: Grade 3 AST
TRAE, N = 37, May 10, 2019
  Aspartate aminotransferase (AST) increased Grade 1, patients: 3
  Aspartate aminotransferase (AST) increased Grade 1, percent of patients: (8) %
  Aspartate aminotransferase (AST) increased Grade 2, patients: 2
  Aspartate aminotransferase (AST) increased Grade 2, percent of patients: (5) %
  Aspartate aminotransferase (AST) increased Grade 3, patients: 4
  Aspartate aminotransferase (AST) increased Grade 3, percent of patients: 11%
  Aspartate aminotransferase (AST) increased Total, patients: 9
  Aspartate aminotransferase (AST) increased Total, percent of patients: (24) %
  Blood alkaline phosphatase increased Grade 1, patients: 6
  Blood alkaline phosphatase increased Grade 1, percent of patients: (16) %
  Blood alkaline phosphatase increased Grade 2, patients: 0
  Blood alkaline phosphatase increased Grade 3, patients: 0
  Blood alkaline phosphatase increased Total, patients: 6
  Blood alkaline phosphatase increased Total, percent of patients: (16) %
  Decreased appetite Grade 1, patients: 1
  Decreased appetite Grade 1, percent of patients: (3) %
  Decreased appetite Grade 2, patients: 6
  Decreased appetite Grade 2, percent of patients: (16) %
  Decreased appetite Grade 3, patients: 0
  Decreased appetite Total, patients: 7
  Decreased appetite Total, percent of patients: (19) %
  Fatigue Grade 1, patients: 4
  Fatigue Grade 1, percent of patients: (11) %
  Fatigue Grade 2, patients: 7
  Fatigue Grade 2, percent of patients: (19) %
  Fatigue Grade 3, patients: 0
  Fatigue Total, patients: 11
  Fatigue Total, percent of patients: (30) %
  Gamma-glutamyltransferase (GGT) increased Grade 1, patients: 3
  Gamma-glutamyltransferase (GGT) increased Grade 1, percent of patients: (8) %
  Gamma-glutamyltransferase (GGT) increased Grade 2, patients: 1
  Gamma-glutamyltransferase (GGT) increased Grade 2, percent of patients: (3) %
  Gamma-glutamyltransferase (GGT) increased Grade 3, patients: 0
  Gamma-glutamyltransferase (GGT) increased Total, patients: 4
  Gamma-glutamyltransferase (GGT) increased Total, percent of patients: (11) %
  Headache Grade 1, patients: 5
  Headache Grade 1, percent of patients: (14) %
  Headache Grade 2, patients: 5
  Headache Grade 2, percent of patients: (14) %
  Headache Grade 3, patients: 0
  Headache Total, patients: 10
  Headache Total, percent of patients: (27) %
  Myalgia Grade 1, patients: 3
  Myalgia Grade 1, percent of patients: (8) %
  Myalgia Grade 2, patients: 1
  Myalgia Grade 2, percent of patients: (3) %
  Myalgia Grade 3, patients: 0
  Myalgia Total, patients: 4
  Myalgia Total, percent of patients: (11) %
  Nausea Grade 1, patients: 12
  Nausea Grade 1, percent of patients: (32) %
  Nausea Grade 2, patients: 2
  Nausea Grade 2, percent of patients: (5) %
  Nausea Grade 3, patients: 0
  Nausea Total, patients: 14
  Nausea Total, percent of patients: (38) %
  Pyrexia Grade 1, patients: 3
  Pyrexia Grade 1, percent of patients: (8) %
  Pyrexia Grade 2, patients: 1
  Pyrexia Grade 2, percent of patients: (3) %
  Pyrexia Grade 3, patients: 0
  Pyrexia Total, patients: 4
  Pyrexia Total, percent of patients: (10) %
  Vomiting Grade 1, patients: 4
  Vomiting Grade 1, percent of patients: (11) %
  Vomiting Grade 2, patients: 1
  Vomiting Grade 2, percent of patients: (3) %
  Vomiting Grade 3, patients: 0
  Vomiting Total, patients: 5
  Vomiting Total, percent of patients: (14) %
As of February 2019
  grade of treatment-related adverse events (TRAEs): Grade 1 or 2
  most common TRAEs: anemia, arthralgias, fatigue, vomiting, anorexia, AST increase, diarrhea, dyspnea (unrelated or unlikely related), hypoalbuminema (unrelated or unlikely related), hypoxia (unrelated), headache, nausea, proteinuria and vomiting
  number of SAEs related to study drug: Two
As of May 10, 2019
  Grade 4 or 5 TRAE: no Grade 4 or 5 TRAE
  grade of adverse events: most adverse events being Grade 1 or 2
  number of SAEs unrelated or unlikely related to treatment: Seventeen
  number of possible treatment related SAEs: Two
  patients with SAEs unrelated or unlikely related to treatment: 11
  tolerability: well tolerated
  toxicities often associated with microtubule-targeting agents or ADCs (neutropenia, ocular toxicities, peripheral neuropathy): Low rate
At DL 5A (30 mg/m^2) and DL 6 (40 mg/m^2)
  number of dose limiting toxicities: Two
conclusions
  MTD / RP2D: Neither MTD nor RP2D has been identified
Maximum doses administered (40 mg/m^2)
  tolerability: well tolerated
Up to the 30 mg/m^2 or 36 mg/m^2 or 43 mg/m^2 dose level
  tolerability: well-tolerated

From US11407825B2, “NaPi2b-targeted polymer antibody-drug conjugates and methods of use thereof” (Mersana Therapeutics, Inc., priority 2018, dated 2022)
